# Test results published in patent US20190389914A1 (University of California, published 2019).
# Where a chain is given by its changes, count along the chain named.
# T1: GAL4 activation domain fusion to HAB1 I383G (Arabidopsis thaliana (Mouse-ear cress), UniProt Q9CAJ0 4-511)
# T1 construct: Mutant of the pACT-HAB1 template, which lacks the three N-terminal amino acids of HAB1
# T1 sequence: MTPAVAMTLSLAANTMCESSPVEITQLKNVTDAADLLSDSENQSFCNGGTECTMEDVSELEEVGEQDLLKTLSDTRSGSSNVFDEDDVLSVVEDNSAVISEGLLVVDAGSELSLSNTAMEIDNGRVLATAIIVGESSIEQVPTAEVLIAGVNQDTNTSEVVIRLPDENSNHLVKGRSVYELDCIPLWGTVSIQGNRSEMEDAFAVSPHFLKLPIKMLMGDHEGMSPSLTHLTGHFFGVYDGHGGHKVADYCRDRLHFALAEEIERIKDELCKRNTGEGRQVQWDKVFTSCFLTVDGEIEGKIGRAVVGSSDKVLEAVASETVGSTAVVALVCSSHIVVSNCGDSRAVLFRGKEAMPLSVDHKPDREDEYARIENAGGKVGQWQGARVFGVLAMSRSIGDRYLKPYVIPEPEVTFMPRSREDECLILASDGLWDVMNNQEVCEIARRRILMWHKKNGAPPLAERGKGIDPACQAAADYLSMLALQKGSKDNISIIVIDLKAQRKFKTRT
# T2: GAL4 activation domain fusion to HAB1 E203T (Arabidopsis thaliana (Mouse-ear cress), UniProt Q9CAJ0 4-511)
# T2 construct: Mutant of the pACT-HAB1 template, which lacks the three N-terminal amino acids of HAB1
# T2 sequence: T1 sequence with E200T, G380I
# B1: GAL4 DNA binding domain fusion to PYR1 (pBD-PYR1), wild type (receptor)
# chain: MKLLSSIEQACDICRLKKLKCSKEKPKCAKCLKNNWECRYSPKTKRSPLTRAHLTEVESRLERLEQLFLLIFPREDLDMILKMDSLQDIKALLTGLFVQDNVNKDAVTDRLASVETDMPLTLRQHRISATSSSEESSNKGQRQLTVSMPSELTPEERSELKNSIAEFHTYQLDPGSCSSLHAQRIHAPPELVWSIVRRFDKPQTYKHFIKSCSVEQNFEMRVGCTRDVIVISGLPANTSTERLDILDDERRVTGFSIIGGEHRLTNYKSVTTVHRFEKENRIWTVVLESYVVDMPEGNSEDDTRMFADTVVKLNLQKLATVAEAMARNSGDGSGSQVT
# notes: Yeast two-hybrid bait expressed in S. cerevisiae; also called WT
# Experiments:
# [1] = biological target: T1, GAL4 activation domain fusion to HAB1 …; assay: Y2H, beta-gal staining
# [2] = biological target: T2, GAL4 activation domain fusion to HAB1 …; assay: Y2H, beta-gal staining
binder,measurement,setting,value
B1,binding result,[1],no binding (tested: 10 µM ABA)
same,binding result,[2],no binding (tested: 10 µM ABA)
